Measurements as given in PMC2757915, “The Elongator Complex Interacts with PCNA and Modulates Transcriptional Silencing and Sensitivity to DNA Damage Agents” (PLoS Genetics, 2009).

Target: T1, Elongator complex purified from yeast cells using Elp5-TAP (S. cerevisiae (endogenous in W303 yeast …, UniProt Q06706 1-1349; P42935 1-788; Q02908 1-557; Q02884 1-456; P38874 1-309; Q04868 …)
T1 construct: Elp1, S. cerevisiae; Elp2, S. cerevisiae; Elp3 (Kat9), S. cerevisiae; Elp4, S. cerevisiae; Elp5, S. cerevisiae; Elp6, S. cerevisiae; Six-subunit complex; also called Elp3 complex; Elp1-Elp6 complex; copies: + + + + +
Assay: co-IP; in vitro: 2.5 µg recombinant PCNA incubated with different amounts of Elp3 complex (purified with Elp5-TAP) in TBS with 0.01% NP-40 at 4°C for 2 hrs; precipitated with polyclonal anti-PCNA antibodies and Protein G Sepharose; Western blot for PCNA and CBP; pre-bleed sera as negative control
Conditions: both partners purified

binding result: binds
B1: recombinant PCNA (natural protein, S. cerevisiae, UniProt P15873 1-258, looked up)
chain: MLEAKFEEASLFKRIIDGFKDCVQLVNFQCKEDGIIAQAVDDSRVLLVSLEIGVEAFQEYRCDHPVTLGMDLTSLSKILRCGNNTDTLTLIADNTPDSIILLFEDTKKDRIAEYSLKLMDIDADFLKIEELQYDSTLSLPSSEFSKIVRDLSQLSDSINIMITKETIKFVADGDIGSGSVIIKPFVDMEHPETSIKLEMDQPVDLTFGAKYLLDIIKGSSLSDRVGIRLSSEAPALFQFDLKSGFLQFFLAPKFNDEE
notes: PCNA, encoded by POL30, S. cerevisiae; expressed from a plasmid in E. coli; No tag is named; purified by conventional chromatography; source: E. coli BL21(DE3), purified (Q-Sepharose, hydroxyapatite, Superdex 200)
